Measurements as given in the supplement of paper PMC9732359.
± gives the uncertainty stated by the source.

Assay: protein stability index of a GFP-peptide fusion (yeast GPS) (PSI 1-4); higher = more stable; sorted into four equal gates, so the index is relative within each strain
Conditions: ubr1∆
Summary of the method: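 Plasmids in a pooled yeast library fused tiled 17-residue yeast protein peptides downstream of GFP and also expressed Cherry. Mid-log cultures grown without leucine were sorted into four equal gates by GFP/Cherry fluorescence ratio. Each gate's plasmids were PCR-amplified and Illumina-sequenced, and reads were matched to strains by barcodes. The protein stability index is derived by multiplying each gate's read frequency by its gate number and summing the results.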

Sequence	protein stability index
CIIFITFEFINIAFDAH [YML031W/NDC1]	1.32 ± 0.032
CIPLVGISVPFHSTYLM [FAS1]	1.39 ± 0.027
CITKQDGFKIYDNEKTA [PUP2]	2.82 ± 0.095
CKQFPKLSCIQLNCIDT [SRB8]	1.66 ± 0.026
CLFTKCLEDPEKPFNEN [POP4]	2.96 ± 0.079
CLNTQRGDSTETSSFGS [RRI1]	3.56 ± 0.17
CLTGTVAARMFHILLKL [ECM29]	2.44 ± 0.069
CLTKFQDEEQTEHLTEL [YCG1]	2.85 ± 0.11
CNALIHIKFSAGTEANA [SRB4]	2.33 ± 0.034
CNQMENLLESITKLLEI [YCS4]	2.96 ± 0.059
CRNILGVTSLIKNLGLP [RPP1]	1.75 ± 0.045
CRRMILTHVDLIEKFLR [RPB10]	2.04 ± 0.099
CSIEPIAAKLINSGLYS [YML103C/NUP188]	1.19 ± 0.062
CTFSMEPYHFISNYNTK [SRB8]	1.71 ± 0.052
DADKLSFNCENFFQAPQ [YML031W/NDC1]	2.3 ± 0.058
DAFVATAFATEFFVQVL [DLS1]	3.09 ± 0.072
DAMVTRTPVIISLRNNH [SMD2]	1.7 ± 0.073
DANLLGAEVLIKGSKLS [COR1]	2.63 ± 0.042
DATNTSYKMIQLDAYGE [SWP82]	3.16 ± 0.05
DAWVSAAHYNRERIKRG [PRP8]	1.96 ± 0.15
DCLSFAPTLSQTYINQE [SSN2]	2.91 ± 0.048
DCMIAHGAASFLKERLM [RPB2]	2.09 ± 0.066
DCNSALDQLLVLEKKTR [RPN5]	2.44 ± 0.083
DDDDDDDDEVDYSEIQR [DSN1]	3.16 ± 0.084
DDDINWQELARSTDEFN [RPT5]	3.2 ± 0.043
DDDISDDEEDEIEENCL [RPN4]	3.32 ± 0.1

Sequence	protein stability index
DDDTFSDREMAALIASK [RPN2]	1.79 ± 0.063
DDETPSCEVEEIGLLGG [SNU114]	3.14 ± 0.065
DDHSQVINPQQLLKGLS [DSN1]	3.01 ± 0.068
DDKVSVVEKEKIESLAG [UBP6]	3.37 ± 0.14
DDKYGRKFALEKLYIFY [SRP72]	2.4 ± 0.055
DDLKQKKEELVEIAYHK [RPO31]	3.08 ± 0.082
DDNDVPGPLPDTDSKPS [YLR018C/POM34]	2.38 ± 0.13
DDQCMLITTYSKLSKNI [SIN4]	2.01 ± 0.038
DDSANIVNVNFMKSVIR [DIS3]	3.03 ± 0.044
DDSTKFQLVNDVMDELI [SIR3]	3.39 ± 0.086
DDTWYNLTEFVQMDKIR [AAR2]	2.83 ± 0.084
DEANIEIDPLTGMPISN [BRN1]	2.42 ± 0.27
DEATVPNTRDAESEAIT [SWI3]	3.23 ± 0.052
DEDDDLDEDDVNADDDD [RPB4]	3 ± 0.11
DEDESQNIAQSSNQSAP [HRT1]	3.19 ± 0.043
DEEGIFSRFVDQFIRHV [YCG1]	2.93 ± 0.06
DEGLLNMVSLRGRNDTL [GRR1]	2.83 ± 0.17
DEIYIPINGNEAESQWY [CSI1]	3.31 ± 0.064
DEKNKNNNEDNENNNNS [MED2]	3.28 ± 0.064
DELILPLPSHALTVQEV [YDL116W/NUP84]	2.44 ± 0.025
DELMVIYISNLVRSIIA [RPN8]	3.24 ± 0.11
DESYARAYRIIRAHQTE [QCR7]	3.41 ± 0.091
DETKGFDDNDSGNNYND [MED2]	3.1 ± 0.048
DEYQAAVEQRKKEKLDS [DPB4]	3.39 ± 0.095
DFDGDEMNLHVPQSEET [RPO21]	3.23 ± 0.074
DFISPELIIDKVTCSSN [MED1]	1.37 ± 0.09

Sequence	protein stability index
DFLRYINIKYLRLDGHT [SNF2]	1.65 ± 0.06
DFVRNELNDIDTKIDQV [SMC3]	3.29 ± 0.13
DGFKIYDNEKTAELIKE [PUP2]	3.18 ± 0.13
DGGLEEETDEVSSESSD [SIR3]	3.24 ± 0.086
DGIVVKNAVVRSKFGGD [ARP7]	3.56 ± 0.2
DGKEDVEKGTPLGKILL [SME1]	3.56 ± 0.075
DGLEKAAFNGVTFKDKY [FAS2]	2.09 ± 0.12
DGMDAAHIEKQSLDTIG [RPO21]	3.05 ± 0.083
DGNNEIFTCQIMNLITN [RPN4]	2.35 ± 0.25
DGTAKEVGDEADNTKDK [MED4]	3.22 ± 0.077
DHDDSTDDADDHINWEH [NSL1]	3.35 ± 0.04
DHHPEGLSAREAVKQAA [PRE10]	2.69 ± 0.049
DHILFTKTFIFIYKKVL [SRB8]	1.11 ± 0.044
DHKFPIRENKVTYSRVS [BRN1]	2.66 ± 0.087
DIEFINSLLTIVWRFIS [RPC34]	2.12 ± 0.14
DIEIVRVNKNAPAVELH [FAS2]	2.96 ± 0.049
DIENKEEEYDETHETNI [YAR002W/NUP60]	3.33 ± 0.064
DIFGDSELFDEWFEQNN [ISW2]	1.63 ± 0.056
DIGKGAETTFLQDVIAL [RPC53]	2.71 ± 0.056
DIIMNPHGFPSRMTVGK [RET1]	2.71 ± 0.065
DIINAVNEIMYKCTAAM [MTW1]	2.33 ± 0.072
DIKAAVDDSMELCGQIR [ITC1]	2.9 ± 0.14
DILLRLCVLWDDLQSSV [YCG1]	2.11 ± 0.07
DINTVNTNLMNGVNVQI [GRR1]	3.06 ± 0.073
DIPPPAIMKPYYLWTGK [RPO31]	2.79 ± 0.047
DIQAMCTEAGLLALRER [RPT2]	3.26 ± 0.055

Sequence	protein stability index
DIQLKNLFPLKPKMLPI [SRP68]	2.46 ± 0.073
DITTSIMDNFLERTAIE [RPN1]	3.28 ± 0.12
DIVQYHLELYTSQYGTP [PRE3]	2 ± 0.042
DIWQSRDQGNDSLNDDL [YIL149C/MLP2]	3.76 ± 0.14
DKEKEENNDDALDLDLD [MED4]	3.16 ± 0.054
DKFSPEDGLGPLMAKSV [ARP7]	3.39 ± 0.097
DKITLHDEKTLAPSKHQ [SIR4]	2.92 ± 0.19
DKKNKRLKFGHRLIATH [SNF2]	2 ± 0.056
DKLICSIDPPGCVDIDD [DIS3]	3.14 ± 0.091
DKNKLLLLAAQIVSYCS [SSN2]	1.74 ± 0.037
DKSTTQLRKEIQLLDEN [MED11]	1.55 ± 0.068
DKTLRLWDVATGETYQR [ASC1]	3.42 ± 0.091
DKVDDYTPEEVDKIERE [SMC4]	1.28 ± 0.11
DKVSSCFPQYVNSKQGA [NNF1]	2.95 ± 0.092
DLCDVVESKFTEKIKSM [RPC19]	3.44 ± 0.077
DLENSPLKTELEANGRS [SSN2]	3.51 ± 0.089
DLESSSPELKADLRPLQ [RPS7B]	3.27 ± 0.17
DLEWQELTSFSSQPLEP [DSN1]	2.98 ± 0.036
DLKFKRHKNKHIQGFPT [DSN1]	2.98 ± 0.12
DLKIEKLVLNISVGESG [RPL11A]	1.89 ± 0.09
DLKNTRMKSITSTSQKI [SNF5]	3.08 ± 0.05
DLLKLVHLSNGYKMIPG [FAS1]	2.24 ± 0.039
DLSANQRETMKERKLRE [SMC1]	3.42 ± 0.063
DLSVTPQKSSSKGFVFN [YAR002W/NUP60]	3.06 ± 0.12
DLSYIEFLFESLKNDLP [ECM29]	3.13 ± 0.12
